Laboratory results published in the Immune Epitope Database (IEDB).
One block for each sequence: values may come before it.

What was measured:
HLA-A*02:01 [1] = assay: IEDB peptide-MHC binding, purified MHC/competitive/radioactivity; ≥ and ≤ were set here for values at or beyond the usual limits of such assays
HLA-A*24:02 = assay: IEDB peptide-MHC binding, purified MHC/direct/fluorescence; filed as Kd, often an IC50 or EC50 that approximates it; ≥ and ≤ were set here for values at or beyond the usual limits of such assays
HLA-B*15:01 [2] = assay: as above
HLA-B*07:02 [3] = assay: as above
HLA-B*51:01 [4] = assay: as above
HLA-B*39:01 = assay: IEDB peptide-MHC binding, purified MHC/competitive/fluorescence; filed as Kd, often an IC50 or EC50 that approximates it; ≥ and ≤ were set here for values at or beyond the usual limits of such assays
HLA-C*06:02 = assay: IEDB peptide-MHC binding, purified MHC/direct/fluorescence; filed as Kd, often an IC50 or EC50 that approximates it; ≥ and ≤ were set here for values at or beyond the usual limits of such assays
HLA-B*35:01 [5] = assay: IEDB peptide-MHC binding, purified MHC/competitive/fluorescence; filed as Kd, often an IC50 or EC50 that approximates it; ≥ and ≤ were set here for values at or beyond the usual limits of such assays; conditions: source organism: Mammarenavirus machupoense
HLA-C*12:03 = assay: IEDB peptide-MHC binding, purified MHC/direct/fluorescence; filed as Kd, often an IC50 or EC50 that approximates it; ≥ and ≤ were set here for values at or beyond the usual limits of such assays; conditions: source organism: Mammarenavirus machupoense
HLA-A*26:01 [6] = assay: as above; conditions: source organism: Mammarenavirus juninense
HLA-A*02:01 [7] = assay: IEDB peptide-MHC binding, purified MHC/competitive/fluorescence; filed as Kd, often an IC50 or EC50 that approximates it; ≥ and ≤ were set here for values at or beyond the usual limits of such assays
HLA-A*33:01 = assay: IEDB peptide-MHC binding, purified MHC/competitive/radioactivity; filed as Kd, often an IC50 or EC50 that approximates it; ≥ and ≤ were set here for values at or beyond the usual limits of such assays; conditions: source organism: Vaccinia virus WR
HLA-B*35:01 [8] = assay: as above; conditions: source organism: Vaccinia virus WR
HLA-B*54:01 = assay: as above; conditions: source organism: Vaccinia virus WR
HLA-A*03:01 [9] = assay: as above; conditions: source organism: Vaccinia virus WR
HLA-B*07:02 [10] = assay: as above; conditions: source organism: Vaccinia virus WR
HLA-A*68:01 = assay: as above; conditions: source organism: Vaccinia virus WR
HLA-A*11:01 [11] = assay: as above; conditions: source organism: Vaccinia virus WR
HLA-B*53:01 = assay: as above; conditions: source organism: Vaccinia virus WR
HLA-B*51:01 [12] = assay: as above; conditions: source organism: Vaccinia virus WR
HLA-A*31:01 [13] = assay: as above; conditions: source organism: Vaccinia virus WR
HLA-A*02:01 [14] = assay: IEDB peptide-MHC binding, purified MHC/direct/fluorescence; filed as Kd, often an IC50 or EC50 that approximates it; ≥ and ≤ were set here for values at or beyond the usual limits of such assays; conditions: source organism: Camelpox virus M-96
HLA-A*69:01 [15] = assay: as above; conditions: source organism: Camelpox virus M-96
HLA-A*02:12 [16] = assay: IEDB peptide-MHC binding, purified MHC/competitive/fluorescence; filed as Kd, often an IC50 or EC50 that approximates it; ≥ and ≤ were set here for values at or beyond the usual limits of such assays; conditions: source organism: Entamoeba histolytica HM-1:IMSS
HLA-A*11:01 [17] = assay: as above; conditions: source organism: Influenza A virus (A/goose/Hong Kong/739.2/2002(H5N1))
HLA-B*40:01 = assay: IEDB peptide-MHC binding, purified MHC/direct/fluorescence; filed as Kd, often an IC50 or EC50 that approximates it; ≥ and ≤ were set here for values at or beyond the usual limits of such assays; conditions: source organism: Mycobacterium tuberculosis
HLA-C*14:02 = assay: as above
HLA-B*15:01 [18] = assay: IEDB peptide-MHC binding, purified MHC/competitive/fluorescence; filed as Kd, often an IC50 or EC50 that approximates it; ≥ and ≤ were set here for values at or beyond the usual limits of such assays; conditions: source organism: Orthohantavirus andesense
HLA-B*27:03 = assay: as above; conditions: source organism: Orthohantavirus andesense
HLA-B*58:01 = assay: as above; conditions: source organism: Orthohantavirus andesense
HLA-B*18:01 = assay: as above; conditions: source organism: Orthohantavirus andesense
HLA-A*69:01 [19] = assay: as above; conditions: source organism: Orthohantavirus andesense
HLA-B*46:01 = assay: as above; conditions: source organism: Orthohantavirus andesense
HLA-A*26:01 [20] = assay: as above; conditions: source organism: Orthohantavirus andesense
HLA-A*02:16 = assay: IEDB peptide-MHC binding, purified MHC/direct/fluorescence; filed as Kd, often an IC50 or EC50 that approximates it; ≥ and ≤ were set here for values at or beyond the usual limits of such assays; conditions: source organism: Orthohantavirus andesense
HLA-A*02:03 = assay: as above; conditions: source organism: Orthohantavirus andesense
HLA-A*29:02 = assay: as above; conditions: source organism: Orthohantavirus andesense
HLA-A*02:19 = assay: as above; conditions: source organism: Orthohantavirus andesense
HLA-A*24:03 = assay: as above; conditions: source organism: Orthohantavirus andesense
HLA-A*68:02 = assay: as above; conditions: source organism: Orthohantavirus andesense
HLA-A*02:12 [21] = assay: as above; conditions: source organism: Orthohantavirus andesense
HLA-A*03:01 [22] = assay: as above; conditions: source organism: Orthohantavirus andesense
HLA-A*02:11 = assay: as above; conditions: source organism: Orthohantavirus andesense
HLA-B*27:05 = assay: as above; conditions: source organism: Homo sapiens
HLA-A*31:01 [23] = assay: as above; conditions: source organism: Homo sapiens
[24] = source organism: Yersinia pestis CA88-4125
[25] = source organism: Burkholderia mallei
[26] = source organism: Bacillus anthracis str. A0488
[27] = source organism: Mycobacterium tuberculosis H37Ra
[28] = source organism: Yersinia pestis
[29] = source organism: Vaccinia virus GLV-1h68
[30] = source organism: Orthohantavirus andesense

IC50 (HLA-A*02:01 [1]; source organism: Homo sapiens): 41.7 nM
Sequence: ALDGGNKHFL

Sequence: TFAWASFLW
Kd (HLA-A*24:02; [24]): 3 nM

Sequence: NPVDGSIWY
Kd (HLA-B*15:01 [2]; source organism: Burkholderia mallei ATCC 23344): ≥ 20000 nM | Kd (HLA-B*07:02 [3]; [25]): ≥ 20000 nM | Kd (HLA-B*51:01 [4]; [25]): ≥ 20000 nM

IC50 (HLA-A*02:01 [1]; source organism: Homo sapiens): 219 nM
Sequence: GLLGSPVRA

Sequence: GPAEARKVC
Kd (HLA-B*51:01 [4]; source organism: Yellow fever virus): ≥ 20000 nM

Sequence: LRHSTAHLL
Kd (HLA-B*39:01; [26]): 71.3 nM | Kd (HLA-C*06:02; [26]): 13 nM

Sequence: DAMPGVLSY
Kd (HLA-B*35:01 [5]): 0.5 nM | Kd (HLA-C*12:03): ≥ 20000 nM | Kd (HLA-A*26:01 [6]): 2.1 nM

Sequence: LNTSAGFPYV
IC50 (HLA-A*02:01 [1]; source organism: Rhinovirus C): 500 nM

Sequence: VLSEWLPVT
IC50 (HLA-A*02:01 [1]; source organism: Rift Valley fever virus): 15 nM

Sequence: GLIDIAPHQI
IC50 (HLA-A*02:01 [1]; [27]): 49 nM

Sequence: TPFEVETRL
Kd (HLA-B*15:01 [2]; [24]): ≥ 20000 nM | Kd (HLA-B*07:02 [3]; [28]): 836 nM | Kd (HLA-B*51:01 [4]; [28]): ≥ 20000 nM

Sequence: LMYDIINSV
Kd (HLA-A*02:01 [7]; [29]): 0.6 nM | Kd (HLA-C*06:02; [29]): 4440 nM | Kd (HLA-A*33:01): ≥ 20300 nM | Kd (HLA-B*35:01 [8]): ≥ 77400 nM | Kd (HLA-B*54:01): 258 nM | Kd (HLA-A*03:01 [9]): ≥ 35100 nM | Kd (HLA-B*07:02 [10]): ≥ 77500 nM | Kd (HLA-A*68:01): ≥ 77700 nM | Kd (HLA-A*11:01 [11]): 1300 nM | Kd (HLA-B*53:01): ≥ 78200 nM | Kd (HLA-B*51:01 [12]): ≥ 54500 nM | Kd (HLA-A*31:01 [13]): 4520 nM

Sequence: IYPEWYFLW
Kd (HLA-A*24:02; source organism: Campylobacter jejuni subsp. jejuni 81116): ≤ 1 nM

Sequence: YLMPYSVYI
Kd (HLA-C*06:02; source organism: Variola virus): 7 nM | Kd (HLA-A*02:01 [14]): ≤ 1 nM | Kd (HLA-A*69:01 [15]): ≤ 1 nM

Sequence: KFITHPFLW
Kd (HLA-A*24:02; source organism: Entamoeba histolytica HM-1:IMSS): ≤ 1 nM

Sequence: NQNDNEETV
Kd (HLA-A*02:12 [16]): 40.4 nM

Sequence: ASYKIFRIEK
Kd (HLA-A*11:01 [17]): 0.9 nM

Sequence: AEAASATPL
Kd (HLA-B*40:01): 21.9 nM | Kd (HLA-C*14:02; [27]): ≥ 20000 nM

Sequence: NALEKALRW
Kd (HLA-B*39:01; [30]): ≥ 20000 nM | Kd (HLA-B*15:01 [18]): ≥ 20000 nM | Kd (HLA-B*27:03): ≥ 20000 nM | Kd (HLA-B*58:01): 25.5 nM | Kd (HLA-B*18:01): ≥ 20000 nM | Kd (HLA-A*02:01 [7]; [30]): ≥ 20000 nM | Kd (HLA-A*69:01 [19]): ≥ 20000 nM | Kd (HLA-B*46:01): ≥ 20000 nM | Kd (HLA-A*26:01 [20]): ≥ 20000 nM | Kd (HLA-A*02:16): ≥ 20000 nM | Kd (HLA-A*02:03): ≥ 20000 nM | Kd (HLA-A*29:02): ≥ 20000 nM | Kd (HLA-A*02:19): ≥ 20000 nM | Kd (HLA-A*24:03): ≥ 20000 nM | Kd (HLA-A*68:02): ≥ 20000 nM | Kd (HLA-A*02:12 [21]): ≥ 20000 nM | Kd (HLA-A*03:01 [22]): ≥ 20000 nM | Kd (HLA-A*02:11): ≥ 20000 nM

Kd (HLA-C*14:02; source organism: Anopheles gambiae str. PEST): ≤ 1 nM | Kd (HLA-B*07:02 [3]; source organism: Homo sapiens): ≥ 27600 nM | Kd (HLA-B*27:05): 10600 nM | Kd (HLA-A*31:01 [23]): 512 nM
Sequence: RYFSVTRPL
